Patent publication US20150313192

Key:
[1] = tested on: RELA TALEN11-1L (left monomer) (synthetic (Xanthomonas TALE)?); assay: cell_activity; conditions: TALEN pair mRNA 2 ng/ul zygote injection, 8 of 39 piglets; 21% of embryos tested in vitro; assayed as pair with right monomer; left/right assignment to …
[2] = tested on: RELA TALEN11-1R (right monomer) (synthetic (Xanthomonas TALE)?); assay: cell_activity; conditions: TALEN pair mRNA 2 ng/ul zygote injection, 8 of 39 piglets; 21% of embryos tested in vitro; assayed as pair with left monomer; left/right assignment to …

| Sequence | activity (% edited of piglets born) [1] | activity (% edited of piglets born) [2] |
| --- | --- | --- |
| GCCCCCCCACACAGCTG (double strand) [RELA TALEN left half-site] | 21 | – |
| AGTACCCTGAGGCTAT (double strand) [RELA TALEN right half-site] | – | 21 |
